Measurements as given in patent publication US20150132307A1 (Hoffmann-La Roche, published 2015).
Blank lines part the entries; values can stand above or below the binder they belong to.

Tests used:
[1] = target: T1, Human recombinant soluble TWEAK (Example 6) (human, UniProt O43508 99-249, limits assumed); assay: cell-based or functional assay
T1 sequence: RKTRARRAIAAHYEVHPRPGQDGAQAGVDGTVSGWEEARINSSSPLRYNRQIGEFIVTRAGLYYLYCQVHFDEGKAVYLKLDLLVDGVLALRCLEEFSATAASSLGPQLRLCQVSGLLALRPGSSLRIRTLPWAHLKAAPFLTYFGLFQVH

[2] = target: T2, Recombinant human TWEAK (R&D Systems; Cat. #1090-TW/CF) (human, UniProt O43508 97-249, limits assumed); assay: cell-based or functional assay
T2 sequence: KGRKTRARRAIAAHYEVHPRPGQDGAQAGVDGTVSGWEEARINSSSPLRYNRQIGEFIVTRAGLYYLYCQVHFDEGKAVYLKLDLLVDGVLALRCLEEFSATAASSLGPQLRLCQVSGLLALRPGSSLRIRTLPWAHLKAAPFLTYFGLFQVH

[3] = target: T3, Biotinylated human soluble TWEAK (amino acids 99-249 of SEQ ID NO: 68) (human, UniProt O43508 99-249, biotinylated); assay: SPR (Biacore), biotinylated soluble TWEAK on streptavidin chip, 25 C
T3 construct: also called Human TWEAK
T3 sequence: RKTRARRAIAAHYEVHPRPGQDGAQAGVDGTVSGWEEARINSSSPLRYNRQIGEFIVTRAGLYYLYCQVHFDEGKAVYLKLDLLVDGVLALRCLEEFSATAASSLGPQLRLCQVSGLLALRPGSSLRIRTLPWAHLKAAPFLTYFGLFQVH
Protocol: (§1) A Biacore 2000 instrument was used with a Biacore streptavidin coated sensor mounted into the system. The system buffer HBS-ET (10 mM HEPES pH 7.4, 150 mM NaCl, 1 mM EDTA, 0.05% Tween® 20) was used at a flow rate of 100 μl/min. The sample buffer was the system buffer. Biotinylated human soluble TWEAK (amino acids 99-249 of SEQ ID NO: 68) and biotinylated murine soluble TWEAK (amino acids 81-225 of SEQ ID NO: 69) was immobilized on different flow cells on the SA sensor at 150 RU each. The flow cell FC1 was used as a blank reference cell. Each antibody was injected into the system as an analyte at 100 nM at 100 μl/min for 2 min association time. The dissociation of the immunecomplexes were monitored for 5 min. The sensor surface was washed with HBS-ET for 10 seconds and regenerated using 2×2 minutes injections with 10 mM glycine pH 2.25. This procedure was done at 25° C. The kinetically rate limiting step of the complex dissociation phase in the interval [240 s-300 s] was taken to calculate the dissociation rate kd [1/s] (Biacore Evaluation Software 4.0). According to the equation t1/2 diss=ln(2)/(60×kd), the half-life of the immunocomplexes in minutes was calculated.

[4] = target: T3, Biotinylated human soluble TWEAK (amino …); assay: SPR (Biacore), biotinylated soluble TWEAK on streptavidin chip, 37 C
human Tweak-Fc [5] = target: T4, human Tweak-Fc (human, UniProt O43508 106-249, limits assumed); assay: SPR (BIAcore T100), TWEAK ligand (Tweak-Fc) amine-coupled on C1 chip, antibody as analyte, 25 C
T4 construct: not shown: Fc part
T4 sequence: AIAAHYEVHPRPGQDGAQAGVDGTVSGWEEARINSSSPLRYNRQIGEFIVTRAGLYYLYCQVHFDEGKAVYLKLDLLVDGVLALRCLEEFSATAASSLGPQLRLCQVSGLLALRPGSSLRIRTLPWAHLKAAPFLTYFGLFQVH
Protocol: (§2) Around 100 resonance units (RU) of TWEAK was immobilized on the C1 chip surface at pH 5.0 using an amine coupling kit supplied by the GE Healthcare. The sample and system buffer was PBS-T (10 mM phosphate buffered saline including 0.05% Tween20) pH 7.4. Association was measured by injection the bispecific antibody in various concentrations in solution for 3 min at a flow of 30 μl/min starting with 50 nM in 1:1 dilutions. The dissociation phase was monitored for up to 10 min and triggered by switching from the sample solution to running buffer. The surface was regenerated by three times 30 sec. washing with a 3M MgCl2 solution at a flow rate of 30 μl/min. Bulk refractive index differences were corrected by subtracting the response obtained from a blank-coupled surface. Blank injections are also subtracted (=double referencing). For calculation of apparent KD and other kinetic parameters the Langmuir 1:1 model was used.

human Tweak-Fc [6] = target: T4, human Tweak-Fc; assay: SPR (BIAcore T100), TWEAK ligand (Tweak-Fc) amine-coupled on C1 chip, antibody as analyte, 25 C, 1:1 model
Protocol: as §2

[7] = target: T5, human Flag-tagged soluble TWEAK (amino acids 106-249) (human, UniProt O43508 106-249); assay: receptor interaction ELISA: Flag-TWEAK preincubated with antibody, then on coated human Fn14:Fc (competitor m21)
T5 construct: The sentence gives amino acids 106-249 without naming the entry; also called Human TWEAK; not shown: Flag tag
T5 sequence: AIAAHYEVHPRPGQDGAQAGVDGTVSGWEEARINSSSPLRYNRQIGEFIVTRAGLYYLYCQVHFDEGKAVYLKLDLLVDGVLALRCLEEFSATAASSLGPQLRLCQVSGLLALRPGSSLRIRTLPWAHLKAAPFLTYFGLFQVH
Protocol: (§3) 96-well Maxisorp® plates (Nunc) were coated with 100 μl 1 μg/ml human Fn14:Fc (extracellular domain of human Fn14 (amino acids 1-75 of SEQ ID NO: 98) fused to Fc portion of human IgG1) in PBS per well for 1.5 h at room temperature and blocked with a solution of 5% FBS in PBS for 30 minutes at room temperature under shaking. […] After washing the Fn14-coated plate once with wash buffer (0.1% Tween® 20 in PBS), 100 μl of the TWEAK-antibody solution were transferred to each well and the plate was incubated for 1 h at room temperature, followed by four washes with wash buffer. Wells were filled with 100 μl of anti-FLAG-HRP detection antibody, diluted 1:5000 in blocking buffer, and incubated for 1 h at room temperature. After four more wash steps, the signal was developed by addition of 100 μl 3,3,5,5-Tetramethylbenzidine (TMB) solution for approximately ten minutes. The reaction was stopped by adding 100 μl of 1 N HCl, and absorbance measured at 450 nm (reference wavelength 620 nm).

human Tweak-Fc [8] = target: T4, human Tweak-Fc; assay: SPR (BIAcore T100), TWEAK ligand (Tweak-Fc) amine-coupled on C1 chip, antibody as analyte, 25 C, apparent KD, 1:1 model
[9] = target: T6, Mouse soluble TWEAK (untagged, Example 5) (mouse, UniProt O54907 105-249, limits assumed); assay: receptor interaction ELISA: mouse soluble TWEAK preincubated with antibody, then on coated mouse Fn14:Fc (competitor m22)
T6 construct: also called Murine TWEAK
T6 sequence: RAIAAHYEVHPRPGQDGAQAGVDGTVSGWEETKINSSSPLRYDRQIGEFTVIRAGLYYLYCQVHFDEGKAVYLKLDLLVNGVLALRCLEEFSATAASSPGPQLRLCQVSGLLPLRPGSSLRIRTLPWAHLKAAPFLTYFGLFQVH
Protocol: (§4) Briefly, Maxisorp plates were coated with mouse Fn14:Fc (extracellular domain of mouse Fn14 (amino acids 1-75 of SEQ ID NO: 98) fused to Fc portion of human IgG1) as described above for human Fn14:Fc, followed by blocking and washing. […] After 1 h of incubation at room temperature and four washes, biotinylated anti-mouse TWEAK antibody at 125 ng/ml in blocking buffer was added for 1 h at room temperature, followed by another four wash steps. The TWEAK antibody was detected by incubation with streptavidin-HRP, diluted 1:5000 in blocking buffer, for 30 minutes at room temperature. Signal was developed and absorbance measured as described above.

human Tweak-Fc [10] = target: T4, human Tweak-Fc; assay: SPR (BIAcore T100), TWEAK ligand (Tweak-Fc) amine-coupled on C1 chip, Fab as analyte, 25 C
human Tweak-Fc [11] = target: T4, human Tweak-Fc; assay: SPR (BIAcore T100), TWEAK ligand (Tweak-Fc) amine-coupled on C1 chip, Fab as analyte, 25 C, 1:1 model
human Tweak-Fc [12] = target: T4, human Tweak-Fc; assay: SPR (BIAcore T100), TWEAK ligand (Tweak-Fc) amine-coupled on C1 chip, Fab as analyte, 25 C, apparent KD, 1:1 model
Protocol: as §2

[13] = target: T1, Human recombinant soluble TWEAK …; assay: cell-based or functional assay; remark: listed apart in the source
[14] = target: T3, Biotinylated human soluble TWEAK (amino …); assay: SPR (Biacore 2000), biotinylated soluble TWEAK on streptavidin chip, antibody 100 nM as analyte, 25 C
Protocol: as §1

[15] = target: T5, human Flag-tagged soluble TWEAK (amino …); assay: receptor interaction ELISA: Flag-TWEAK 2.5 ng/ml preincubated with antibody, then on coated human Fn14:Fc (competitor m21)
Protocol: as §3

[16] = target: T6, Mouse soluble TWEAK (untagged, Example …); assay: receptor interaction ELISA: mouse soluble TWEAK 4 ng/ml preincubated with antibody, then on coated mouse Fn14:Fc (competitor m22)
Protocol: as §4

[17] = target: T7, Biotinylated TWEAK (Example 7) (Homo sapiens (Human), UniProt O43508 99-249, Biotinylated (sites not given), captured on a streptavidin chip. The active form is a soluble homotrimer; one protomer is given.); assay: Biacore crossblocking on immobilised biotinylated TWEAK; antibody 2 injected after saturating antibody 1 = TW-301chi (competitor m4), 100 nM each
T7 sequence: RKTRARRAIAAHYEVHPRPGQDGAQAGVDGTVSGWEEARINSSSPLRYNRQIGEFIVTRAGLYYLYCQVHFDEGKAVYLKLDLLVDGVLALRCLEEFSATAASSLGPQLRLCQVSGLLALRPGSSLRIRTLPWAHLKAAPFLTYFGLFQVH
Protocol: (§5) Because of the individual biochemical properties of the TWEAK protein another method had to be developed using TWEAK as ligand. Biotinylated TWEAK was immobilized on the streptavidin-coated chip surface and epitope coverage of consecutively injected antibodies (antibody 1) was measured. The aim was to detect the relative binding levels of a secondary antibody (antibody 2) in the presence of an already bound primary antibody. From these relative binding levels a quotient was calculated (Ab2/Ab1, molar ratio given in %, table 3).
(§6) 5 nM of biotinylated TWEAK was immobilized at 20 μl/min for 1 min on a streptavidin coated sensor flow cell. Primary and secondary mAbs were consecutively injected at 10 μl/min for 4 min into the system at 100 nM each until saturation of the respective TWEAK epitopes was achieved. As a reference an SA coated flow cell was used.

[18] = target: T7, Biotinylated TWEAK (Example 7); assay: Biacore crossblocking on immobilised biotinylated TWEAK; antibody 2 injected after saturating antibody 1 = TW-304chi (competitor m5), 100 nM each
Protocol: as §5, §6

[19] = target: T7, Biotinylated TWEAK (Example 7); assay: Biacore crossblocking on immobilised biotinylated TWEAK; antibody 2 injected after saturating antibody 1 = TW-305chi (competitor m6), 100 nM each
Protocol: as §5, §6

- Inhibition of IL8-Secretion [ng/ml] (A375 cells) [1]: 197 ng/mL
- IC50 (nM) per valency, Tweak induced HFLS proliferation (CellTiter Glo) [2]: 0.152 nM
- Biacore t/2 diss. [min] 25° C. human [3]: 110 min
- Biacore t/2 diss. [min] 37° C. human [4]: 147 min
- T½ (human Tweak-Fc [5]): 3.37 h
- koff (human Tweak-Fc [6]): 5.71e-05 s⁻¹
- kon (human Tweak-Fc [6]): 2.27e+06 M⁻¹ s⁻¹
- IC50 [7]: 2.3 ng/mL
- Kd (human Tweak-Fc [8]): 0.0252 nM
- IC50 [9]: 8.2 ng/mL
B1: Humanized <TWEAK> 305- antibody 27 (antibody, V domains shown)
VH: QVQLVQSGAEVKKPGSSVKVSCKASGFDFSTYYMSWVRQAPGQGLEWMGTVYVRQGTTYYASWLNGRVTITADESTSTAYMELSSLRSEDTAVYYCARGGYNYDDAFVIWGQGTLVTVSS
VL: DIQMTQSPSSVSASVGDRVTITCQASQNIYSNLAWYQQKPGKAPKLLIYTASYLASGVPSRFSGSGSGTDYTLTISSLQPEDFATYYCQTAYYNSRPDTVAFGGGTKVEIK

- T½ (human Tweak-Fc [10]): 2.72 h
- koff (human Tweak-Fc [11]): 7.09e-05 s⁻¹
- kon (human Tweak-Fc [11]): 4.72e+06 M⁻¹ s⁻¹
- Kd (human Tweak-Fc [12]): 0.015 nM
B2: <TWEAK>305 (antibody 27) -Fab (Fab, V domains shown)
VH: QVQLVQSGAEVKKPGSSVKVSCKASGFDFSTYYMSWVRQAPGQGLEWMGTVYVRQGTTYYASWLNGRVTITADESTSTAYMELSSLRSEDTAVYYCARGGYNYDDAFVIWGQGTLVTVSS
VL: DIQMTQSPSSVSASVGDRVTITCQASQNIYSNLAWYQQKPGKAPKLLIYTASYLASGVPSRFSGSGSGTDYTLTISSLQPEDFATYYCQTAYYNSRPDTVAFGGGTKVEIK

- Inhibition of IL-8 Secretion IC50 [ng/ml] (A375 cells) [13]: 121 ng/mL
- t/2 diss [min] 25° C. [14]: 110 min
- IC50 [15]: 2.8 ng/mL
- IC50 [16]: 6.4 ng/mL
- MR % (Ab2/Ab1, molar ratio) [17]: 0%
- MR % (Ab2/Ab1, molar ratio) [18]: 0%
- MR % (Ab2/Ab1, molar ratio) [19]: 0%
B3: <TWEAK> 301chi (antibody, human IgG1, kappa, V domains shown)
VH: QSLEESGGGLVKPGASLTLTCTASGFTFNANYWICWVRQAPGKGLEWIACIYGGGNSGAYYASWATGRFTISRTSSTTVTLQMTSLTAADTATYFCARGPISRDLWGPGTLVTVSL
VL: DVVMTQTPASVSEPVGGTVTIKCQASQSIYSSLAWYQQKPGQPPKLLIYDAFDLASGVSSRFTGSGSGTQFTLTISDLECADAATYYCQSTDYGNSWDGNPFGGGTEVVVTR
